According to patent publication US7169901 (Genentech, dated 2007):

Biological target: rhVEGF165 (human, UniProt P15692 27-191, limits assumed)
Experiment: cell-based or functional assay

Sequence of rhVEGF165 (P15692 other isoform, or with tags, fused parts or gaps limits assumed): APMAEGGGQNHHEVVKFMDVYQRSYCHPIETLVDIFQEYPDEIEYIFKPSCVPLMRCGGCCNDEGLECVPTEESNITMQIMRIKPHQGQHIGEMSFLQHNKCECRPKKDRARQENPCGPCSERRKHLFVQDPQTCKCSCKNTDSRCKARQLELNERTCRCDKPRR

B1: Y0313-1 (Fab, V domains shown)
VH: EVQLVESGGGLVQPGGSLRLSCAASGYDFTHYGMNWVRQAPGKGLEWVGWINTYTGEPTYAADFKRRFTFSLDTSKSTAYLQMNSLRAEDTAVYYCAKYPYYYGTSHWYFDVWGQGTL
VL: DIQLTQSPSSLSASVGDRVTITCRANEQLSNYLNWYQQKPGKAPKVLIYFTSSLHSGVPSRFSGSGSGTDFTLTISSLQPEDFATYYCQQYSTVPWTFGQGTKVEIKR
- potency in inhibiting VEGF-induced HuVEC growth ([3H]-thymidine), relative to Y0192 Fab: 30 fold
